The source of these data is paper PMC11199487, “Hub stability in the calcium calmodulin-dependent protein kinase II” (Communications Biology, 2024).

Where a chain is given by its changes, count along the chain named. In names and notes the source's numbering stands. Several values for one entry are separate records, joined by “and”; a condition that tells them apart may be missing. Equal values may be shown once.

Data set [1] deals with the molecule itself. Nature of the data set: cryo-EM structure; isolated Venus-tagged hubs, 20 mg/mL, flash-frozen stocks thawed on ice, grids plunge-frozen at 4 °C and 100% humidity; self-assembly of the association domains.
Data set [2] concerns the molecule itself. The data set is described as follows: SEC; EnRich SEC 650 column, 50 mM Tris, 150 mM KCl, 0.2 mM TCEP, 2% glycerol, pH 8.0, room temperature, thawed stocks applied without dilution, 250 μL, 1 mL/min. For orientation: SEC sorts molecules by how far they enter the pores of the column.
Data set [3] deals with the molecule itself. The data set is described as follows: cryo-EM structure; Venus-tagged β holoenzyme sample, 20 mg/mL, fresh rather than flash-frozen preparation, grids plunge-frozen at 4 °C and 100% humidity; only the hub resolved.

B1: CaMKIIβ hub (6His-V15-rCaMKIIβ hub construct) (domain or fragment, rat)
chain: ARKQEIIKTTEQLIEAVNNGDFEAYAKICDPGLTSFEPEALGNLVEGMDFHRFYFENLLAKNSKPIHTTILNPHVHVIGEDAACIAYIRLTQYIDGQGRPRTSQSEETRVWHRPDGKWQNVHFHCSGAPVAPLQ
notes: rat CaMKII beta association domain (AD); made from the holoenzyme construct by removal of the kinase domain; also called isolated β hub; native β; source: E. coli BL21/Rosetta, co-transformed with a protein phosphatase plasmid, purified (nickel Hi-Trap); not shown: Venus, N-terminal, kept
Consider B1, for which, in data set [1], the “stoichiometry N” value was 12 and 14.

B2: CaMKIIβ hub F458A (domain or fragment, rat)
chain: B1 chain with F50A
notes: rat CaMKII beta association domain (AD) with F458A; as m2 with the substitution; The methods describe F458A mutagenesis only of 6His-V15-rCaMKIIβ (the holoenzyme construct); The results say that F458A disassembles isolated β hubs; also called βF458A (isolated hub); source: E. coli BL21/Rosetta, co-transformed with a protein phosphatase plasmid, purified (nickel Hi-Trap); not shown: Venus, …
Consider B2, for which, in data set [2], the “stoichiometry N” value worked out at 2.

B3: CaMKIIα hub (6His-V15-mCaMKIIα hub construct: Venus tag, 15-amino-acid linker, α association domain) (domain or fragment)
chain: VRKQEIIKVTEQLIEAISNGDFESYTKMCDPGMTAFEPEALGNLVEGLDFHRFYFENLWSRNSKPVHTTILNPHIHLMGDESACIAYIRITQYLDAGGIPRTAQSEETRVWHRRDGKWQIVHFHRSGAPSVLPH
notes: CaMKII alpha association domain (AD); made from the holoenzyme construct by removal of the kinase domain; The plasmid is named mCaMKIIα, but the introduction speaks of rat α hubs; also called isolated α hub; CaMKIIα AD hub; source: E. coli BL21/Rosetta, co-transformed with a protein phosphatase plasmid, purified (nickel Hi-Trap); not shown: Venus, N-terminal, kept
Consider B3, for which, in data set [1], the “stoichiometry N” value was 12 and 14.

B4: CaMKIIβ holoenzyme T287A/T306A/T307A (6His-V15-rCaMKIIβ triple mutant) (enzyme, rat, UniProt P08413 1-542, looked up)
chain: MATTVTCTRFTDEYQLYEDIGKGAFSVVRRCVKLCTGHEYAAKIINTKKLSARDHQKLEREARICRLLKHSNIVRLHDSISEEGFHYLVFDLVTGGELFEDIVAREYYSEADASHCIQQILEAVLHCHQMGVVHRDLKPENLLLASKCKGAAVKLADFGLAIEVQGDQQAWFGFAGTPGYLSPEVLRKEAYGKPVDIWACGVILYILLVGYPPFWDEDQHKLYQQIKAGAYDFPSPEWDTVTPEAKNLINQMLTINPAKRITAHEALKHPWVCQRSTVASMMHRQEAVECLKKFNARRKLKGAILAAMLATRNFSVGRQTTAPATMSTAASGTTMGLVEQAKSLLNKKADGVKPQTNSTKNSSAITSPKGSLPPAALEPQTTVIHNPVDGIKESSDSTNTTIEDEDAKARKQEIIKTTEQLIEAVNNGDFEAYAKICDPGLTSFEPEALGNLVEGMDFHRFYFENLLAKNSKPIHTTILNPHVHVIGEDAACIAYIRLTQYIDGQGRPRTSQSEETRVWHRPDGKWQNVHFHCSGAPVAPLQ
notes: rat CaMKII beta, open reading frame codon optimized for bacterial expression, with T287A, T306A and T307A; Only the association-domain hub is resolved in the cryo-EM maps; also called engineered β holoenzyme; source: E. coli BL21/Rosetta, co-transformed with a protein phosphatase plasmid, purified (nickel Hi-Trap); not shown: Venus, N-terminal, kept
With B4, the “stoichiometry N” value in data set [3] is 14 and 12.

As a reminder, the stoichiometry N is a count of units in the complex or per binding partner.
